The source of these data is patent US20190309023A1 (MAINLINE BIOSCIENCES, published 2019).

Bridge positions count the residues as written; N and C are the ends. Square brackets hold non-standard residues; d marks the D form. * marks the point of attachment. 2Nal = N[C@@H](Cc1ccc2ccccc2c1)C(=O)O; Palmitoyl = CCCCCCCCCCCCCCCC(=O)*; Lauroyl = CCCCCCCCCCCC(=O)*; hCys = N[C@@H](CCS)C(=O)O; PhAc = O=C(Cc1ccccc1)*; Bz = O=C(c1ccccc1)*; Mpa = O=C(O)CCS; iPr = CC(C)*

The labels stand for the following.
B1: Cyclo[Mpa-Tyr-Lys(iPr)-(D-Arg)-2Nal-Gly-Cys]-Lys(iPr)-Gly-2Nal-Gly-NH2 (peptide)
peptide: [Mpa]YK(iPr)[dR][2Nal]GCK(iPr)G[2Nal]G-NH2
modifications: disulfide 1-7; also: acetate salt
notes: Synthetic cyclic peptide, acetate salt; also called MLB-008
B2: Benzoyl-cyclo[Cys-Tyr-Lys(iPr)-(D-Arg)-2Nal-Gly-hCys]-Lys(iPr)-Gly-NH2 (peptide)
peptide: Bz-CYK(iPr)[dR][2Nal]G[hCys]K(iPr)G-NH2
modifications: disulfide 1-7; also: acetate salt
notes: Synthetic cyclic peptide, acetate salt; also called MLB-022
B3: Benzoyl-cyclo[hCys-Tyr-Lys(iPr)-(D-Arg)-2Nal-Gly-Cys]-Lys(iPr)-Gly-NH(Et) (peptide)
peptide: Bz-[hCys]YK(iPr)[dR][2Nal]GCK(iPr)G-NHEt
modifications: disulfide 1-7; also: acetate salt
notes: Synthetic cyclic peptide, acetate salt; also called MLB-024
B4: Cyclo[Mpa-Tyr-Lys(iPr)-(D-Arg)-2Nal-Gly-Cys]-Lys(iPr)-Gly-NH(Et) (peptide)
peptide: [Mpa]YK(iPr)[dR][2Nal]GCK(iPr)G-NHEt
modifications: disulfide 1-7; also: acetate salt
notes: Synthetic cyclic peptide, acetate salt; also called MLB-014
B5: Cyclo[Mpa-Tyr-Lys(iPr)-(D-Arg)-2Nal-Gly-Cys]-Lys(iPr)-Lys(Ac)-NH(Et) (peptide)
peptide: [Mpa]YK(iPr)[dR][2Nal]GCK(iPr)K(Ac)-NHEt
modifications: disulfide 1-7; also: acetate salt
notes: Synthetic cyclic peptide, acetate salt; also called MLB-027
B6: Cyclo[Mpa-Tyr-Lys(iPr)-(D-Arg)-2Nal-Gly-Cys]-Lys(iPr)-Lys(lauroyl)-NH(Et) (peptide)
peptide: [Mpa]YK(iPr)[dR][2Nal]GCK(iPr)K(Lauroyl)-NHEt
modifications: disulfide 1-7; also: acetate salt
notes: Synthetic cyclic peptide, acetate salt; also called MLB-028
B7: Cyclo[Mpa-Tyr-Lys(iPr)-(D-Arg)-2Nal-Gly-Cys]-Lys(iPr)-Lys(palmitoyl)-NH(Et) (peptide)
peptide: [Mpa]YK(iPr)[dR][2Nal]GCK(iPr)K(Palmitoyl)-NHEt
modifications: disulfide 1-7; also: acetate salt
notes: Synthetic cyclic peptide, acetate salt; also called MLB-029
B8: Ac-cyclo[hCys-Tyr-Lys(iPr)-(D-Arg)-2Nal-Gly-Cys]-Lys(iPr)-Gly-NH2 (peptide)
peptide: Ac-[hCys]YK(iPr)[dR][2Nal]GCK(iPr)G-NH2
modifications: disulfide 1-7; also: acetate salt
notes: Synthetic cyclic peptide, acetate salt; also called MLB-010
B9: Phenylacetyl-cyclo[hCys-Tyr-Lys(iPr)-(D-Arg)-2Nal-Gly-Cys]-Lys(iPr)-Gly-NH2 (peptide)
peptide: PhAc-[hCys]YK(iPr)[dR][2Nal]GCK(iPr)G-NH2
modifications: disulfide 1-7; also: acetate salt
notes: Synthetic cyclic peptide, acetate salt; also called MLB-025
B10: Cyclo[Mpa-Arg-Tyr-Arg-2Nal-Gly-Cys]-Arg-Gly-(D-Phe)-Gly-NH2 (peptide)
peptide: [Mpa]RYR[2Nal]GCRG[dF]G-NH2
modifications: disulfide 1-7; also: acetate salt
notes: Synthetic cyclic peptide, acetate salt; also called MLB-011
B11: Benzoyl-cyclo[Cys-Tyr-Lys(iPr)-(D-Arg)-2Nal-Gly-Cys]-Lys(iPr)-Gly-NH2 (peptide)
peptide: Bz-CYK(iPr)[dR][2Nal]GCK(iPr)G-NH2
modifications: disulfide 1-7; also: acetate salt
notes: Synthetic cyclic peptide, acetate salt; also called MLB-023
B12: Cyclo[Mpa-Tyr-Lys(iPr)-(D-Arg)-2Nal-Gly-Cys]-Arg-Gly-(D-Phe)-Gly-NH2 (peptide)
peptide: [Mpa]YK(iPr)[dR][2Nal]GCRG[dF]G-NH2
modifications: disulfide 1-7; also: acetate salt
notes: Synthetic cyclic peptide, acetate salt; also called MLB-002
B13: Cyclo[Mpa-Tyr-Arg-(D-Arg)-2Nal-Gly-Cys]-Arg-Gly-(D-Phe)-Gly-NH2 (peptide)
peptide: [Mpa]YR[dR][2Nal]GCRG[dF]G-NH2
modifications: disulfide 1-7; also: acetate salt
notes: Synthetic cyclic peptide, acetate salt; also called MLB-001
B14: Cyclo[Mpa-Tyr-Lys(iPr)-(D-Arg)-2Nal-Gly-Cys]-(D-Arg)-Gly-(D-Phe)-Gly-NH2 (peptide)
peptide: [Mpa]YK(iPr)[dR][2Nal]GC[dR]G[dF]G-NH2
modifications: disulfide 1-7; also: acetate salt
notes: Synthetic cyclic peptide, acetate salt; also called MLB-004
B15: Ac-cyclo[hCys-Tyr-Lys(iPr)-(D-Arg)-2Nal-Gly-Cys]-Lys(iPr)-Gly-NH(Et) (peptide)
peptide: Ac-[hCys]YK(iPr)[dR][2Nal]GCK(iPr)G-NHEt
modifications: disulfide 1-7; also: acetate salt
notes: Synthetic cyclic peptide, acetate salt; also called MLB-026
B16: Benzoyl-cyclo[hCys-Tyr-Lys(iPr)-(D-Arg)-2Nal-Gly-Cys]-Lys(iPr)-Gly-NH2 (peptide)
peptide: Bz-[hCys]YK(iPr)[dR][2Nal]GCK(iPr)G-NH2
modifications: disulfide 1-7; also: acetate salt
notes: Synthetic cyclic peptide, acetate salt; also called MLB-021

This assay deals with T1, Human chemokine receptor CXCR4 (human, UniProt P61073 1-352).
T1 construct: whole, on cells; Used as membranes (0.5 ug membrane protein) of Chem-1 cells that express the receptor; also called C-X-C chemokine receptor type 4; fusin
T1 sequence (P61073 whole entry): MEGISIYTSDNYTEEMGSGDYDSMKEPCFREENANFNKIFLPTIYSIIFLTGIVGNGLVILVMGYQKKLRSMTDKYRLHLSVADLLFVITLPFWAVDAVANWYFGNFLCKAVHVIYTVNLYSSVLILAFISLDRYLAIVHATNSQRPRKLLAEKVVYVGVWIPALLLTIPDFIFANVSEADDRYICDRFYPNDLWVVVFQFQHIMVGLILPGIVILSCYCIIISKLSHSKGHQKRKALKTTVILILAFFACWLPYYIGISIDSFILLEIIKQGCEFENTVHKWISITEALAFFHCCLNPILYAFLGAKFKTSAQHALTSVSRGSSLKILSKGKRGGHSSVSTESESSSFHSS
Nature of the assay: competition with [125I]SDF-1α, human CXCR4 membranes (Chem-1 cells). The method, then: Human chemokine receptor CXCR4 expressed in Chem-1 cells were used in modified HEPES buffer pH 7.4. A 0.5 μg (Membrane protein may change from lot to lot, the concentration used were adjusted as necessary), aliquot was incubated with 0.03 nM [¹²⁵I]SDF-1α for 90 minutes at 25° C. Non-specific binding was estimated in the presence of 30 nM SDF-1α. Membranes were filtered and washed, filters were then counted to determine [¹²⁵I]SDF-1α specifically bound. Compounds were screened starting at 10 μM with 11-point dilutions (Valenzuela-Fernandez A, et al. J Biol Chem. 277(18):15677, 2002).
As usually defined, the IC50 is the concentration needed to halve the response being measured. Turning to Ac-CYK(iPr)[dR][2Nal]GCK(iPr)G-NH2 (linker 1-7 via 1,2‑bisbromomethyl benzene; also: acetate salt, Acetate salt) [MLB-032], the “Binding Kb” value turned out to be 0.12 nM and the IC50 was 0.4 nM.

As to B1, the “Binding Kb” value is 0.29 nM and the IC50 is 0.95 nM.

Consider B2, for which the “Binding Kb” value turned out to be 0.21 nM and the IC50 turned out to be 0.71 nM.

With Ac-CYK(iPr)[dR][2Nal]GCK(iPr)G-NH2 (linker 1-7 via 1,3‑bisbromomethyl benzene; also: acetate salt, Acetate salt) [MLB-033], the “Binding Kb” value is 0.99 nM and the IC50 was determined as 3.3 nM.

Turning to B3, the “Binding Kb” value was determined as 0.39 nM and the IC50 is 1.3 nM.

For the molecule B4, the “Binding Kb” value turned out to be 0.19 nM and the IC50 worked out at 0.64 nM.

As for B5, the “Binding Kb” value stood at 0.15 nM and the IC50 was 0.48 nM.

As for B6, the “Binding Kb” value is 2.5 nM and the IC50 worked out at 8.2 nM.

B7: the “Binding Kb” value was determined as 3.2 nM and the IC50 is 11 nM.

Take B8: the “Binding Kb” value was 0.17 nM and the IC50 stood at 0.56 nM.

Turning to B9, the “Binding Kb” value came to 0.25 nM and the half-inhibitory concentration (IC50) amounted to 0.84 nM.

For the molecule B10, the “Binding Kb” value is above 1000 nM.

For B11, the “Binding Kb” value is 1 nM and the half-inhibitory concentration (IC50) came out at 3.4 nM.

With B12, the “Binding Kb” value came out at 0.28 nM and the IC50 amounted to 0.92 nM.

In the case of B13, the “Binding Kb” value came out at 7.3 nM and the IC50 is 24 nM.

On to B14, for which the “Binding Kb” value is 0.21 nM and the IC50 worked out at 0.7 nM.

As for Bz-CYK(iPr)[dR][2Nal]GCK(iPr)G-NH2 (linker 1-7 via 1,2‑bisbromomethyl benzene; also: acetate salt, Acetate salt) [MLB-030], the “Binding Kb” value came out at 0.39 nM and the IC50 was found to be 1.3 nM.

Consider B15, for which the “Binding Kb” value amounted to 0.27 nM and the IC50 was found to be 0.89 nM.

In the case of B16, the “Binding Kb” value was determined as 0.13 nM and the IC50 amounted to 0.42 nM.
